Laboratory results published in the supplement of paper PMC10567573.

B1: NP_002788.1 (parent)
chain: DGWIRVSSDNVADLHEKYSGSTP

Variants of: B1
Assay: protein stability index of a GFP-peptide fusion (GPS, HEK-293T) (PSI 1-6); higher = more stable
Conditions: c terminus: native
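Also: lentivirally expressed fusion library, cells FACS-sorted into six equal-sized GFP/DsRed ratio bins, PSI computed from sequencing read fractions per bin weighted by bin number.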

Point of comparison: DGWINVSSDNVADLHEKYSGSTP, protein stability index 2.63. Against it:
- DGWIRLSSDNVADLHEKYSGSTP — higher, 2.78
- DGWIRSSSDNVADLHEKYSGSTP — higher, 3.41
- DGWIRKSSDNVADLHEKYSGSTP — lower, 2.16
- DGWIRDSSDNVADLHEKYSGSTP — higher, 4.78
- DGWIRASSDNVADLHEKYSGSTP — lower, 2.27
- DGWIRPSSDNVADLHEKYSGSTP — higher, 5.05
- DGWIRCSSDNVADLHEKYSGSTP — higher, 3
- DGWIRISSDNVADLHEKYSGSTP — lower, 2.21
- DGWIRNSSDNVADLHEKYSGSTP — higher, 2.86
- DGWIRYSSDNVADLHEKYSGSTP — lower, 2.48
- DGWIRESSDNVADLHEKYSGSTP — higher, 3.77
- DGWIRGSSDNVADLHEKYSGSTP — higher, 4.34
- DGWIRWSSDNVADLHEKYSGSTP — higher, 3.04
- DGWIRMSSDNVADLHEKYSGSTP — lower, 2.31
- DGWIRQSSDNVADLHEKYSGSTP — lower, 2.41
- DGWIRFSSDNVADLHEKYSGSTP — higher, 2.77
- DGWIRHSSDNVADLHEKYSGSTP — lower, 2.18
- DGWIRTSSDNVADLHEKYSGSTP — higher, 3.15
- DGWIRRSSDNVADLHEKYSGSTP — lower, 2.13
- DGWIRVSSKNVADLHEKYSGSTP — lower, 2.36
- DGWIRVSSVNVADLHEKYSGSTP — lower, 2.54
- DGWIRVSSCNVADLHEKYSGSTP — lower, 2.4
- DGWIRVSSQNVADLHEKYSGSTP — lower, 2.41
- DGWIRVSSNNVADLHEKYSGSTP — lower, 2.29
- DGWIRVSSYNVADLHEKYSGSTP — lower, 2.24
- DGWIRVSSMNVADLHEKYSGSTP — lower, 2.59
- DGWIRVSSINVADLHEKYSGSTP — lower, 2.27
- DGWIRVSSSNVADLHEKYSGSTP — higher, 2.74
- DGWIRVSSENVADLHEKYSGSTP — lower, 2.34
- DGWIRVSSGNVADLHEKYSGSTP — higher, 2.82
- DGWIRVSSPNVADLHEKYSGSTP — lower, 2.25
- DGWIRVSSTNVADLHEKYSGSTP — lower, 2.43
- DGWIRVSSLNVADLHEKYSGSTP — lower, 2.42
- DGWIRVSSWNVADLHEKYSGSTP — lower, 2.19
- DGWIRVSSHNVADLHEKYSGSTP — lower, 2.59
- DGWIRVSSANVADLHEKYSGSTP — lower, 2.35
- DGWIRVSSFNVADLHEKYSGSTP — lower, 2.27
- DGWIRVSSRNVADLHEKYSGSTP — lower, 2.3
- DGWIRVWSDNVADLHEKYSGSTP — higher, 2.64
- DGWIRVHSDNVADLHEKYSGSTP — higher, 3.09
- DGWIRVMSDNVADLHEKYSGSTP — lower, 2.41
- DGWIRVRSDNVADLHEKYSGSTP — higher, 4.19
- DGWIRVYSDNVADLHEKYSGSTP — lower, 2.39
- DGWIRVKSDNVADLHEKYSGSTP — higher, 4.58
- DGWIRVCSDNVADLHEKYSGSTP — lower, 2.07
- DGWIRVVSDNVADLHEKYSGSTP — lower, 2.06
- DGWIRVLSDNVADLHEKYSGSTP — lower, 2.26
- DGWIRVTSDNVADLHEKYSGSTP — lower, 2.24
- DGWIRVESDNVADLHEKYSGSTP — higher, 3.83
- DGWIRVNSDNVADLHEKYSGSTP — higher, 4.02
- DGWIRVGSDNVADLHEKYSGSTP — higher, 3.63
- DGWIRVPSDNVADLHEKYSGSTP — higher, 4.54
- DGWIRVASDNVADLHEKYSGSTP — lower, 2.32
- DGWIRVDSDNVADLHEKYSGSTP — higher, 4.55
- DGWIRVISDNVADLHEKYSGSTP — lower, 2.25
- DGWIRVQSDNVADLHEKYSGSTP — higher, 3.86
- DGWIRVFSDNVADLHEKYSGSTP — lower, 2.45
- DGWIEVSSDNVADLHEKYSGSTP — higher, 2.96
- DGWISVSSDNVADLHEKYSGSTP — lower, 2.51
- DGWICVSSDNVADLHEKYSGSTP — higher, 2.83
- DGWIQVSSDNVADLHEKYSGSTP — lower, 2.52
- DGWIYVSSDNVADLHEKYSGSTP — higher, 2.76
- DGWIAVSSDNVADLHEKYSGSTP — lower, 2.31
- DGWIPVSSDNVADLHEKYSGSTP — higher, 4.15
- DGWIWVSSDNVADLHEKYSGSTP — lower, 2.41
- DGWILVSSDNVADLHEKYSGSTP — lower, 2.5
- DGWIVVSSDNVADLHEKYSGSTP — lower, 2.42
- DGWIMVSSDNVADLHEKYSGSTP — higher, 2.64
- DGWIHVSSDNVADLHEKYSGSTP — lower, 2.62
- DGWIGVSSDNVADLHEKYSGSTP — higher, 3.15
- DGWIDVSSDNVADLHEKYSGSTP — higher, 3.01
- DGWIIVSSDNVADLHEKYSGSTP — higher, 2.67
- DGWITVSSDNVADLHEKYSGSTP — lower, 2.54
- DGWIKVSSDNVADLHEKYSGSTP — lower, 2.49
- DGWIFVSSDNVADLHEKYSGSTP — lower, 2.52
- HGWIRVSSDNVADLHEKYSGSTP — lower, 2.51
- SGWIRVSSDNVADLHEKYSGSTP — lower, 2.53
- WGWIRVSSDNVADLHEKYSGSTP — higher, 2.8
- RGWIRVSSDNVADLHEKYSGSTP — lower, 2.44
- MGWIRVSSDNVADLHEKYSGSTP — lower, 2.3
- NGWIRVSSDNVADLHEKYSGSTP — lower, 2.33
- LGWIRVSSDNVADLHEKYSGSTP — lower, 2.2
- CGWIRVSSDNVADLHEKYSGSTP — lower, 2.23
- AGWIRVSSDNVADLHEKYSGSTP — lower, 2.37
- QGWIRVSSDNVADLHEKYSGSTP — lower, 2.36
- YGWIRVSSDNVADLHEKYSGSTP — lower, 2.07
- EGWIRVSSDNVADLHEKYSGSTP — lower, 2.54
- FGWIRVSSDNVADLHEKYSGSTP — lower, 2.3
- IGWIRVSSDNVADLHEKYSGSTP — higher, 2.92
- VGWIRVSSDNVADLHEKYSGSTP — lower, 2.36
- TGWIRVSSDNVADLHEKYSGSTP — lower, 2.48
- KGWIRVSSDNVADLHEKYSGSTP — lower, 2.09
- PGWIRVSSDNVADLHEKYSGSTP — higher, 2.7
- DGMIRVSSDNVADLHEKYSGSTP — higher, 5.35
- DGLIRVSSDNVADLHEKYSGSTP — higher, 5.26
- DGHIRVSSDNVADLHEKYSGSTP — higher, 5.35
- DGNIRVSSDNVADLHEKYSGSTP — higher, 5.39
- DGYIRVSSDNVADLHEKYSGSTP — higher, 5.02
- DGDIRVSSDNVADLHEKYSGSTP — higher, 5.23
- DGKIRVSSDNVADLHEKYSGSTP — higher, 5.21
- DGEIRVSSDNVADLHEKYSGSTP — higher, 5.43
- DGFIRVSSDNVADLHEKYSGSTP — higher, 4.08
- DGQIRVSSDNVADLHEKYSGSTP — higher, 5.42
- DGVIRVSSDNVADLHEKYSGSTP — higher, 5.65
- DGPIRVSSDNVADLHEKYSGSTP — higher, 5.26
- DGSIRVSSDNVADLHEKYSGSTP — higher, 5.54
- DGAIRVSSDNVADLHEKYSGSTP — higher, 5.34
- DGTIRVSSDNVADLHEKYSGSTP — higher, 5.5
- DGRIRVSSDNVADLHEKYSGSTP — higher, 5.15
- DGIIRVSSDNVADLHEKYSGSTP — higher, 5.33
- DGGIRVSSDNVADLHEKYSGSTP — higher, 5.28
- DGCIRVSSDNVADLHEKYSGSTP — higher, 5.49
- DGWNRVSSDNVADLHEKYSGSTP — higher, 4.94
- DGWHRVSSDNVADLHEKYSGSTP — higher, 4.58
- DGWSRVSSDNVADLHEKYSGSTP — higher, 3.47
- DGWDRVSSDNVADLHEKYSGSTP — higher, 4.94
- DGWKRVSSDNVADLHEKYSGSTP — higher, 3.67
- DGWERVSSDNVADLHEKYSGSTP — higher, 3.9
- DGWGRVSSDNVADLHEKYSGSTP — higher, 4.49
- DGWQRVSSDNVADLHEKYSGSTP — higher, 2.94
- DGWPRVSSDNVADLHEKYSGSTP — higher, 5.29
- DGWARVSSDNVADLHEKYSGSTP — higher, 2.92
- DGWMRVSSDNVADLHEKYSGSTP — higher, 3.39
- DGWYRVSSDNVADLHEKYSGSTP — higher, 4.36
- DGWLRVSSDNVADLHEKYSGSTP — higher, 3.18
- DGWFRVSSDNVADLHEKYSGSTP — higher, 4.14
- DGWVRVSSDNVADLHEKYSGSTP — lower, 2.17
- DGWTRVSSDNVADLHEKYSGSTP — higher, 2.81
- DGWWRVSSDNVADLHEKYSGSTP — higher, 3.58
- DGWRRVSSDNVADLHEKYSGSTP — higher, 3.53
- DGWCRVSSDNVADLHEKYSGSTP — higher, 3.19
- DGWIRVSSDNEADLHEKYSGSTP — lower, 1.92
- DGWIRVSSDNHADLHEKYSGSTP — lower, 2.29
- DGWIRVSSDNFADLHEKYSGSTP — lower, 2.37
- DGWIRVSSDNCADLHEKYSGSTP — lower, 2.41
- DGWIRVSSDNAADLHEKYSGSTP — lower, 2.53
- DGWIRVSSDNGADLHEKYSGSTP — higher, 2.7
- DGWIRVSSDNDADLHEKYSGSTP — lower, 2.54
- DQWIRVSSDNVADLHEKYSGSTP — lower, 2.56
- DSWIRVSSDNVADLHEKYSGSTP — lower, 2.13
- DKWIRVSSDNVADLHEKYSGSTP — lower, 2.13
- DNWIRVSSDNVADLHEKYSGSTP — lower, 2.42
- DDWIRVSSDNVADLHEKYSGSTP — higher, 2.9
- DTWIRVSSDNVADLHEKYSGSTP — lower, 2.09
- DVWIRVSSDNVADLHEKYSGSTP — lower, 2.49
- DYWIRVSSDNVADLHEKYSGSTP — higher, 2.78
- DEWIRVSSDNVADLHEKYSGSTP — lower, 2.51
- DFWIRVSSDNVADLHEKYSGSTP — lower, 2.47
- DPWIRVSSDNVADLHEKYSGSTP — higher, 2.71
- DWWIRVSSDNVADLHEKYSGSTP — lower, 2.27
- DRWIRVSSDNVADLHEKYSGSTP — higher, 2.97
- DCWIRVSSDNVADLHEKYSGSTP — lower, 2.21
- DLWIRVSSDNVADLHEKYSGSTP — lower, 2.54
- DHWIRVSSDNVADLHEKYSGSTP — lower, 2.51
- DAWIRVSSDNVADLHEKYSGSTP — lower, 2.25
- DMWIRVSSDNVADLHEKYSGSTP — lower, 2.36
- DGWIRVSSDIVADLHEKYSGSTP — lower, 2.28
- DGWIRVSSDKVADLHEKYSGSTP — lower, 2.28
- DGWIRVSSDCVADLHEKYSGSTP — lower, 2.21
- DGWIRVSSDWVADLHEKYSGSTP — lower, 2.42
- DGWIRVSSDHVADLHEKYSGSTP — lower, 2.22
- DGWIRVSSDAVADLHEKYSGSTP — lower, 1.84
- DGWIRVSSDYVADLHEKYSGSTP — lower, 2.36
- DGWIRVSSDRVADLHEKYSGSTP — lower, 2.04
- DGWIRVSSDLVADLHEKYSGSTP — higher, 2.69
- DGWIRVSSDTVADLHEKYSGSTP — lower, 2.37
- DGWIRVSSDPVADLHEKYSGSTP — lower, 2.58
- DGWIRVSSDGVADLHEKYSGSTP — higher, 2.86
- DGWIRVSSDVVADLHEKYSGSTP — lower, 2.39
- DGWIRVSSDMVADLHEKYSGSTP — higher, 2.67
- DGWIRVSSDFVADLHEKYSGSTP — lower, 2.4
- DGWIRVSSDEVADLHEKYSGSTP — lower, 2.53
- DGWIRVSSDDVADLHEKYSGSTP — lower, 2.54
- DGWIRVSSDSVADLHEKYSGSTP — lower, 2.17
- DGWIRVSDDNVADLHEKYSGSTP — higher, 2.99
- DGWIRVSHDNVADLHEKYSGSTP — lower, 2.57
- DGWIRVSGDNVADLHEKYSGSTP — lower, 2.42
- DGWIRVSLDNVADLHEKYSGSTP — lower, 2.28
- DGWIRVSEDNVADLHEKYSGSTP — lower, 2.23
- DGWIRVSVDNVADLHEKYSGSTP — lower, 2.42
- DGWIRVSNDNVADLHEKYSGSTP — lower, 2.31
- DGWIRVSKDNVADLHEKYSGSTP — higher, 2.68
- DGWIRVSRDNVADLHEKYSGSTP — lower, 2.31
- DGWIRVSPDNVADLHEKYSGSTP — higher, 3.95
- DGWIRVSTDNVADLHEKYSGSTP — higher, 2.87
- DGWIRVSCDNVADLHEKYSGSTP — lower, 2.13
- DGWIRVSQDNVADLHEKYSGSTP — lower, 2.54
- DGWIRVSYDNVADLHEKYSGSTP — lower, 2.14
- DGWIRVSFDNVADLHEKYSGSTP — lower, 2.36
- DGWIRVSIDNVADLHEKYSGSTP — lower, 2.32
- DGWIRVSMDNVADLHEKYSGSTP — lower, 2.41
- DGWIRVSADNVADLHEKYSGSTP — lower, 2.31
- DGWIRVSWDNVADLHEKYSGSTP — lower, 2.23
